Target: CAP256 gp140-FL-IP (soluble Env) (HIV-1 (CAP256 SU, subtype C))
Experiment: native gel or EMSA; NativePAGE Novex 3 to 12% bis-Tris gels, Coomassie stain or anti-gp120 blot, molecular weight against NativeMark standard; protein after GNL affinity and SEC (Superdex 200 HiLoad 16/600)

“CAP256 gp140-FL-IP (soluble Env) (domain or fragment)” gave a stoichiometry N of 3.
